{
  "source": "paper PMC12676778",
  "about": "“Long-tailed class I myosins rely on tail-mediated phosphoinositide recognition for specific membrane recruitment” (Cell Communication and Signaling : CCS, 2025)",
  "details_in_all_cases": "both partners purified",
  "key": {"[1]": {"molecular_target": "microtubules (UniProt P02550 1-451, alpha/beta-tubulin heterodimer polymerised into paclitaxel-stabilised microtubules, GTP in the buffer. Source and isotypes not given); porcine brain tubulin (a natural isotype mixture with native mod)", "sequence (P02550 whole entry, chain 1 of 2)": "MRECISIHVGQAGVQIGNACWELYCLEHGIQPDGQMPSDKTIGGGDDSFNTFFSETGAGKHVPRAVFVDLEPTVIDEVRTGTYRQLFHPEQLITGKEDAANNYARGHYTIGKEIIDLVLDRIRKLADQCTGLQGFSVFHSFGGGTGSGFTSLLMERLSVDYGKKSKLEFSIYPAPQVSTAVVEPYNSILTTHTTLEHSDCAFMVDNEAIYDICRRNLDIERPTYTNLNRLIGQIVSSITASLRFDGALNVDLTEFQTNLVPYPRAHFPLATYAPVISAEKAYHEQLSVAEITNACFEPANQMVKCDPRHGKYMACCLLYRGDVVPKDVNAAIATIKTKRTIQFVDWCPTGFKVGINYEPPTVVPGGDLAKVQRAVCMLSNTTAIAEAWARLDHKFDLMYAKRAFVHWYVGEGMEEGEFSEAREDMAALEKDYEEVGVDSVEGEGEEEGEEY", "sequence (P02554 whole entry, chain 2 of 2, further chain)": "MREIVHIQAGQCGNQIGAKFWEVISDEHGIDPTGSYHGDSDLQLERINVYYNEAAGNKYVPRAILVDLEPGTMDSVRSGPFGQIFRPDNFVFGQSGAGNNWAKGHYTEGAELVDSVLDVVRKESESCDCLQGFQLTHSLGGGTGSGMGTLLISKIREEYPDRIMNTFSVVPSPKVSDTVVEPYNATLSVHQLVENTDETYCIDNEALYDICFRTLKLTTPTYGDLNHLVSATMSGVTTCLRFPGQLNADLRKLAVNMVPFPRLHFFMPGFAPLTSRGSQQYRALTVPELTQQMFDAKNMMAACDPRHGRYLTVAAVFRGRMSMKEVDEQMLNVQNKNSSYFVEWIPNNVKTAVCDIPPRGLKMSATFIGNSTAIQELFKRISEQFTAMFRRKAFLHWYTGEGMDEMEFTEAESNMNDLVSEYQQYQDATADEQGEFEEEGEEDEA", "assay": "co-sedimentation; YFP fluorescence of pellet and supernatant; 100 mM PIPES pH 6.8, 2 mM MgCl2, 1 mM EGTA, 20 µM paclitaxel, 1 mM GTP; 20,000 g, 30 min, 30 °C; hyperbolic fit"}, "[2]": {"molecular_target": "T1, F-actin (UniProt P68135 1-377)", "assay": "co-sedimentation; YFP fluorescence of pellet and supernatant; increasing F-actin concentrations; 5 mM Tris pH 7.4, 100 mM KCl, 0.04% NaN3, 2 mM MgCl2; 20,000 g, 30 min, 4 °C"}, "[3]": {"molecular_target": "T1, F-actin", "assay": "co-sedimentation; YFP fluorescence of pellet and supernatant; increasing F-actin concentrations; 5 mM Tris pH 7.4, 100 mM KCl, 0.04% NaN3, 2 mM MgCl2; 20,000 g, 30 min, 4 °C", "remark": "listed apart in the source"}},
  "data": [
    {"binder": "myosin-1D tail-TH1 construct (aa 721–913) (domain or fragment, Dictyostelium discoideum, UniProt P34109 721-913, looked up, Dictyostelium discoideum myosin-1D, TH1 domain only, aa 721-913; The methods describe cloning into pGEX-6P2 (GST only); the results call the construct YFP-tagged and the co-sedimentation detects YFP; S3; also called Myosin-1D-TH1; isolated TH1 domain; source: E. coli Rosetta pLys-S, purified (glutathione-Sepharose, size exclusion chromatography)) MKSNKERRRLSIERPYQGDYINYRENFELKDIVKKNGNEKIMFTHAVNKYDRRSRCQRRVLLLSDTAIYFIATEKNKDKEDRKKRPWIYVQKRRLLLAGITSVELSKLSDGFVVLKTMNEHDQIFECRRKTEFLGTLIKAYKTGTLRINYNNSIGVAIKASKQGGKGKERIILFEKGIKPGESVFKGTKVSTP", "values": [
      {"measurement": "Kd", "setting": "[1]", "value": "3300 ± 200", "unit": "nM"}
    ]},
    {"binder": "myosin-1B tail (amino acids 717–1111) (domain or fragment, Dictyostelium discoideum, UniProt P34092 717-1111, looked up, Dictyostelium discoideum myosin-1B, tail, amino acids 717-1111 (NCBI XM_631290.1); Cloned both into pGEX-6P2 (GST only) and pGEX-6P2-eYFP-mcs (GST and YFP); the actin and microtubule assays detect YFP; S3; also called YFP-myosin-1 tail; source: E. coli Rosetta pLys-S, purified (glutathione-Sepharose, size exclusion chromatography); not shown: YFP, C-terminal, kept) QRAQIAHMFKDKKERQRNSIDRKFTSDYIDFENQFGLQEAMQNAHKKERVVFADTVIKIDRRAKQKNYEMVLTDQALYFVEKSIKKKVLVHTLIRRVGLREIKGVSISTLSDNVIVFHLPEHDQVIENDKKTEIIIVLVEYFKAIGGGSLNVQFSDRINYTLKKGEQKEISFQKSEQCPTLVVKKGGKGLIGTIASGLPSSTDSTPKNYNPNSMSQASSRPAPQQSAGRGRGMPQGAGQPQPQQPQQQQRPMPQPQQGGGARPMPQPQQGGGARPMGAPQQGGAPQQGAGRQLPQPTQQGGAPGGRGAPMGRGAPGGGPAGAGGRPLPTVAKPAPQPSRPTAKALYDYDASSTDELSFKEGDIIFIVQKDNGGWTQGELKSGQKGWAPTNYLQYN", "values": [
      {"measurement": "Kd", "setting": "[1]", "value": "900 ± 100", "unit": "nM"},
      {"measurement": "Kd", "setting": "[2]", "value": "6.8 ± 0.2", "unit": "µM"}
    ]},
    {"binder": "myosin-1C tail (domain or fragment, Dictyostelium discoideum myosin-1C, tail; S3; also called YFP-myosin-1 tail; source: E. coli Rosetta pLys-S, purified (glutathione-Sepharose, size exclusion chromatography)) RYWHDMASRIKNAYRNYKAFQFECSNRIKNAFRNYKLYRQRCAQTIQGYFRAWKQASPFFDLRMQNEQLFQGRKERNRFSMISVRKYFGDYLDVRSQSYFLDAMAEGRNEDVIFSSKSQVMVHPILSANKLSPRFLIVTKQAIYLIKLKQKKNLATYLLDRRVPLAEVTSFSLSSLADNLLVIHTSTQFDVAVTTEFKTELVALINKQKGTTLAVNFGQSIQYFKKKGSNNTVTFLKDEMHKEIFLKKNQFHIASGLPASTTVAKVRKNPSQVSTPSKPIAKPVAKPMVAKPSGGSVIMKKPAPAAPPSGPPVMKKPAPTAPGGAPMMKKPAPAPGGAPMMKKPAPVPGGPAPGGSAIMKPAGGVSKPLPSPTGAPMMKKPAPTAPGGPAPAGAPTPMMKKPAGQPMMKPIAKPQPTPMKKPAAPPPQQYIALYEYDAMQPDELTFKENDVINLIKKVDADWWQGELVRTKQIGMLPSNYVQQI", "values": [
      {"measurement": "Kd", "setting": "[2]", "value": "0.8 ± 0.08", "unit": "µM"},
      {"measurement": "Kd", "setting": "[3]", "value": "900 ± 400", "unit": "nM"}
    ]}
  ]
}
